Experimental data as given in publication doi:10.1101/2025.06.11.659212 (bioRxiv, 2025).

Target: the molecule itself
Test: cryo-EM structure

B1: cyanide hydratase from Gloeocercospora sorghi (enzyme, UniProt P32964 1-368, looked up)
chain: MPINKYKAAVVTSEPVWENLEGGVVKTIEFINEAGKAGCKLIAFPEVWIPGYPYWMWKVNYLQSLPMLKAYRENSIAMDSSEMRRIRAAARDNQIYVSIGVSEIDHATLYLTQVLISPLGDVINHRRKIKPTHVEKLVYGDGSGDSFEPVTQTEIGRLGQLNCWENMNPFLKSLAVARGEQIHVAAWPVYPDLSKQVHPDPATNYADPASDLVTPAYAIETGTWVLAPFQRISVEGLKRHTPPGVEPETDATPYNGHARIFRPDGSLYAKPAVDFDGLMYVDIDLNESHLTKALADFAGHYMRPDLIRLLVDTRRKELVTEVGGGDNGGIQSYSTMARLGLDRPLEEEDYRQGTDAGETEKASSNGHA
  stoichiometry N: 24 monomers

B2: cyanide dihydratase from Bacillus safensis strain PER-URP-08 (enzyme, UniProt P0DXY3 1-330, looked up)
chain: MTSIYPKFRAAAVQAAPVYLNLEATVEKSCELIDEAASNGAKLVAFPEAFLPGYPWFAFIGHPEYTRKFYHELYKNAVEIPSLAIQKISEAAKRNETYVCISCSEKDGGSLYLAQLWFNPNGDLIGKHRKMRASVAERLIWGDGSGSMMPVFQTDIGNLGGLMCWEHQVPLDLMAMNAQNEQVHVASWPGYFDDEISSRYYAIATQTFVLMTSSIYTEEMKEMICLTQEQRDYFETFKSGHTCIYGPDGEPISDMVPAETEGIAYAEIDVERVIDYKYYIDPAGHYSNQSLSMNFNQQPTPVVKQLYHQKNEVFTYEDIQYQHGILEEKV
  stoichiometry N: 18 monomers
